Several values for one entry are separate records, joined by “and”; a condition that tells them apart may be missing. Equal values may be shown once. Read-outs that look alike come from different tables or passages of the source.
Columns and labels:
[1] = molecular target: T1, IGF-IR on human tumour cells (H292, MCF-7, RH41) (human, UniProt P08069 31-1367); experiment: cell-based or functional assay
[2] = molecular target: T2, EGFR on the surface of human tumour cells (A431, H292) (human, UniProt P00533 25-1210); experiment: cell-based or functional assay
[3] = molecular target: T2, EGFR on the surface of human tumour …; experiment: cell-based or functional assay; remark: listed apart in the source
[4] = molecular target: T2, EGFR on the surface of human tumour …
[5] = molecular target: T2, EGFR on the surface of human tumour …; experiment: cell-based or functional assay; remark: listed apart in the source
[6] = molecular target: T1, IGF-IR on human tumour cells (H292, …); experiment: cell-based or functional assay; remark: listed apart in the source
[7] = molecular target: T2, EGFR on the surface of human tumour …; experiment: cell-based or functional assay; remark: listed apart in the source
[8] = molecular target: T2, EGFR on the surface of human tumour …; remark: listed apart in the source
[9] = molecular target: T3, Recombinant human EGFR-Fc (aa 1-645 of the extracellular domain of human EGFR fused to human Fc) (human, UniProt P00533 25-645)
T3 construct: range 1-645; bought from R&D Systems; also called EGFR645-Fc; EGFR-Fc (HER-1); not shown: human Fc

[10] = molecular target: T3, Recombinant human EGFR-Fc (aa 1-645 of …); experiment: BIAcore
[11] = molecular target: T2, EGFR on the surface of human tumour …; remark: listed apart in the source
[12] = molecular target: T2, EGFR on the surface of human tumour …; experiment: cell-based or functional assay; remark: listed apart in the source
[13] = molecular target: T3, Recombinant human EGFR-Fc (aa 1-645 of …); experiment: SPR Biacore
[14] = molecular target: T3, Recombinant human EGFR-Fc (aa 1-645 of …); remark: listed apart in the source
[15] = molecular target: T3, Recombinant human EGFR-Fc (aa 1-645 of …); remark: listed apart in the source
[16] = molecular target: T3, Recombinant human EGFR-Fc (aa 1-645 of …); remark: listed apart in the source
[17] = molecular target: T4, IGF1R-Fc (extracellular domain of human IGF1R aa 1-932 fused to hinge and constant regions of human IgG1) (human, UniProt P08069 31-932)
T4 construct: range 1-932; made in house by transient transfection, purified on Protein A; also called IGF-IR-Fc; not shown: hinge and constant regions of human IgG1

[18] = molecular target: T1, IGF-IR on human tumour cells (H292, …); experiment: IGF-I competition for IGF-IR binding
[19] = molecular target: T1, IGF-IR on human tumour cells (H292, …); experiment: cell-based or functional assay; remark: listed apart in the source
[20] = molecular target: T1, IGF-IR on human tumour cells (H292, …); experiment: [125I]-IGF-I competition on MCF-7 cells
[21] = molecular target: T4, IGF1R-Fc (extracellular domain of human …); experiment: SPR Biacore
[22] = molecular target: T4, IGF1R-Fc (extracellular domain of human …); experiment: SPR Biacore, IGF-IR-Fc captured on Protein A
[23] = molecular target: T1, IGF-IR on human tumour cells (H292, …); experiment: cell-based or functional assay; remark: listed apart in the source
[24] = molecular target: T2, EGFR on the surface of human tumour …; experiment: cell-based or functional assay; remark: listed apart in the source
mouse EGFR = mouse EGFR (mouse, UniProt Q01279 25-647, limits assumed); experiment: SPR Biacore
rat EGFR = rat EGFR (rat, UniProt A0ABK0LZB0 35-1214); experiment: SPR Biacore
monkey EGFR = monkey EGFR (monkey); experiment: SPR Biacore
[25] = molecular target: T2, EGFR on the surface of human tumour …; experiment: cell-based or functional assay; remark: listed apart in the source
[26] = molecular target: T3, Recombinant human EGFR-Fc (aa 1-645 of …); remark: listed apart in the source
[27] = molecular target: T4, IGF1R-Fc (extracellular domain of human …); remark: listed apart in the source
[28] = molecular target: T2, EGFR on the surface of human tumour …; remark: listed apart in the source

| inhibition of IGF1-stimulated IGF1R phosphorylation (Y1131), H292 cells, ELISA, IC50 [1] | inhibition of EGF-stimulated EGFR phosphorylation (Y1068), H292 cells, ELISA, IC50 [2] | IC50, EGF-stimulated EGFR phosphorylation, H292 cells, ELISA [3] | IC50 [4] | % inhibition of EGFR phosphorylation at 100 nM binder, cell-based assay [5] | H292 pIGF-IR IC50 (ELISA) [6] | A431 pEGFR IC50 (In-Cell Western) [7] | A431 pERK IC50 (In-Cell Western) [7] | H292 pEGFR IC50 (ELISA) [7] | IC50 [8] | Kd [10] | Inhibition of H292 Proliferation IC50 [12] | Inhibition of PERK IC50 [12] | Inhibition of pEGFR IC50 [12] | Kd [13] | IC50, IGF1-stimulated IGFR phosphorylation, H292 cells, ELISA [19] | Binder | also measured |
| --- | --- | --- | --- | --- | --- | --- | --- | --- | --- | --- | --- | --- | --- | --- | --- | --- | --- |
| – | – | 21 nM | 0.87 nM | 87.5% | > 7000 nM | 15 nM | 11 nM | 22 nM | 4.75 nM | 0.72 nM | 26 nM | 97 nM | 11 nM | 3.4 nM | – | E3 EGFR 10Fn3-based binder, His-tagged monomer (designed binder) MGVSDVPRDLEVVAATPTSLLISWLPGKLRYQYYRITYGETGGNSPVQEFTVPHDLRTATISGLKPGVDYTITVYAVTNMMHVEYSEYPISINYRTEIDKPSQHHHHHH | IC50, EGF-stimulated EGFR phosphorylation, A431 cells, In Cell Western [3]: 14 nM; Kd [14]: 3.4 nM; Kd [15]: 1.4 nM; koff [16]: 0.000398 s⁻¹; kon [16]: 283000 M⁻¹ s⁻¹ |
| – | – | – | – | – | – | – | – | – | – | – | – | – | – | – | 0.2 nM | I1-GS10-E4 pegylated, His-tagged (designed binder, 40 kDa branched PEG on the Cys of the C-terminal Cys tail) MGVSDVPRDLEVVAATPTSLLISWSARLKVARYYRITYGETGGNSPVQEFTVPKNVYTATISGLKPGVDYTITVYAVTRFRDYQPISINYRTEIDKGSGSGSGSGSGSGSGSGSGSVSDVPRDLEVVAATPTSLLISWHERDGSRQYYRITYGETGGNSPVQEFTVPGGVRTATISGLKPGVDYTITVYAVTDYFNPTTHEYIYQTTPISINYRTEIDKPCQHHHHHH | IC50, EGF-induced EGFR phosphorylation, A431 cells, In Cell Western [24]: 12 nM; IC50, EGF-induced ERK phosphorylation, A431 cells, In Cell Western [24]: 13 nM; IC50, EGF-stimulated EGFR phosphorylation, H292 cells, ELISA [24]: 4 nM; Kd (mouse EGFR): 5.5 nM; Kd (rat EGFR): 3.7 nM; Kd (monkey EGFR): 3.9 nM; H292 colony formation assay IC50 [25]: 6 nM; Kd [26]: 3.63 nM; Kd [27]: 0.46 nM; IC50 [28]: 38.1 nM |

The next lines start with the binder.

| Binder | inhibition of IGF1-stimulated IGF1R phosphorylation (Y1131), H292 cells, ELISA, IC50 [1] | inhibition of EGF-stimulated EGFR phosphorylation (Y1068), H292 cells, ELISA, IC50 [2] | IC50, EGF-stimulated EGFR phosphorylation, H292 cells, ELISA [3] | IC50 [4] | % inhibition of EGFR phosphorylation at 100 nM binder, cell-based assay [5] | H292 pIGF-IR IC50 (ELISA) [6] | A431 pEGFR IC50 (In-Cell Western) [7] | A431 pERK IC50 (In-Cell Western) [7] | H292 pEGFR IC50 (ELISA) [7] | IC50 [8] | Kd [10] | Inhibition of H292 Proliferation IC50 [12] | Inhibition of PERK IC50 [12] | Inhibition of pEGFR IC50 [12] | Kd [13] | IC50, IGF1-stimulated IGFR phosphorylation, H292 cells, ELISA [19] | also measured |
| --- | --- | --- | --- | --- | --- | --- | --- | --- | --- | --- | --- | --- | --- | --- | --- | --- | --- |
| E1 EGFR 10Fn3-based binder, His-tagged monomer (designed binder) MGVSDVPRDLEVVAATPTSLLISWVAGAEDYQYYRITYGETGGNSPVQEFTVPHDLVTATISGLKPGVDYTITVYAVTDMMHVEYTEHPISINYRTEIDKPSQHHHHHH | > 3500 nM | 7 nM | 8 nM | 0.53 nM | 85.9% | > 3400 nM | 24 nM | 13 nM | 9 nM | 15.9 nM | 14.6 nM | 18 nM | 17 nM | 18 nM | 9.92 nM | – | Kd [9]: 9.92 nM and 13.2 nM; koff [9]: 0.00118 s⁻¹ and 0.00189 s⁻¹; kon [9]: 119000 M⁻¹ s⁻¹ and 143000 M⁻¹ s⁻¹; IC50 [11]: 14 nM |
| I1 IGF-IR 10Fn3-based binder, His-tagged monomer (designed binder) MGVSDVPRDLEVVAATPTSLLISWSARLKVARYYRITYGETGGNSPVQEFTVPKNVYTATISGLKPGVDYTITVYAVTRFRDYQPISINYRTEIDKPSQHHHHHH | 18 nM | > 6210 nM | – | – | – | 0.2 nM | – | – | – | – | – | – | – | – | – | 0.4 nM | Kd [17]: 0.11 nM; koff [17]: 0.000434 s⁻¹; kon [17]: 3.84e+06 M⁻¹ s⁻¹; IC50 [18]: 8 nM; IC50 [20]: 8 nM; Kd [21]: 0.11 nM; Kd [22]: 0.11 nM; Inhibition of RH41 Proliferation IC50 [23]: 28 nM; Inhibition of pIGFR IC50 [23]: 0.2 nM |

Reference: patent US20180037631A1 (Bristol-Myers Squibb, published 2018)
